From publication PMC10200060, “Inhibition of DAMP actions in the tumoral microenvironment using lactoferrin-glycyrrhizin conjugate for glioblastoma therapy” (Biomaterials Research, 2023)

Columns and labels:
[1] = target: human recombinant HMGB1 protein (high-mobility group box-1) (human) (UniProt P09429)
[2] = target: human recombinant HMGB1 protein (high-mobility group box-1) (human) (UniProt P09429); assay: SPR; human recombinant HMGB1 immobilised on a CMDH chip (immobilisation buffer 10 mM S.A., pH 4.5); analytes flowed at 30 uL/min; running buffer PBS pH 7.4; association and dissociation 3 min each; room temperature; Reichert SR7500DC, Scrubber2

Chain of human recombinant HMGB1 protein (high-mobility group box-1) (human) (P09429 whole entry): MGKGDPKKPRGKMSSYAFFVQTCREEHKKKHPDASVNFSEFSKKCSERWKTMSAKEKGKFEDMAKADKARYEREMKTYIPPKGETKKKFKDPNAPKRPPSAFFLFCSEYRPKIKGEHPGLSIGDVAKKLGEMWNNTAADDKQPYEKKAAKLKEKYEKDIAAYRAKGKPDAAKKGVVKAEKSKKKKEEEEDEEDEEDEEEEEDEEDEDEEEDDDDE

Substance | reduction of HUVEC proliferation in Transwell co-culture with U87MG (CCK-8, 24 h, 100 uM GL equivalent) [1] | Kd [2]
lactoferrin human (Lf) (natural protein) | 8.2% | 0.165 µM
lactoferrin-glycyrrhizin conjugate Lf-GL (1:15) |  | 0.0323 µM
lactoferrin-glycyrrhizin conjugate Lf-GL (1:4) |  | 0.595 µM
lactoferrin-glycyrrhizin conjugate Lf-GL (1:10) | 13% | 0.0231 µM
